For 1 substance, stoichiometry N results are on record in publication PMC10653821.

As a reminder, the stoichiometry N is a count of units in the complex or per binding partner.

This assay concerns the target H. pylori-bullfrog hybrid ferritin nanoparticle (bullfrog (Rana catesbeiana) | Helicobacter pylori). Put plainly: SEC. A general note: In gel filtration, larger molecules generally elute earlier.

For the substance “H. pylori-bullfrog hybrid ferritin nanoparticle”, the stoichiometry N was determined as 24.
